From article doi:10.1101/2025.03.24.644901, “Substrate recognition by human separase” (bioRxiv, 2025)

Molecular target: T1, inactive apo-separase (separase^C2029S) (human, UniProt Q14674 1-2120, C2029S)
T1 construct: human separase, aa 1-2120, catalytic cysteine replaced with serine; AIL1 and the autocleavage sites are intact in this construct; also called apo-separase^C2029S; source: Sf9 (baculovirus), purified (StrepTactin, heparin, Superose 6)
Test: fluorescence polarisation; FlAsH-labelled MBP-SCC1 fragment as probe, inactive separase added; 25 mM HEPES pH 8.0, 100 mM NaCl, 0.1 mg/ml BSA, 0.01% NP40; 25°C; One Site-Total non-linear fit; three repeats
Details: both partners purified

T1 sequence (Q14674 whole entry C2029S, the tested form may be a part): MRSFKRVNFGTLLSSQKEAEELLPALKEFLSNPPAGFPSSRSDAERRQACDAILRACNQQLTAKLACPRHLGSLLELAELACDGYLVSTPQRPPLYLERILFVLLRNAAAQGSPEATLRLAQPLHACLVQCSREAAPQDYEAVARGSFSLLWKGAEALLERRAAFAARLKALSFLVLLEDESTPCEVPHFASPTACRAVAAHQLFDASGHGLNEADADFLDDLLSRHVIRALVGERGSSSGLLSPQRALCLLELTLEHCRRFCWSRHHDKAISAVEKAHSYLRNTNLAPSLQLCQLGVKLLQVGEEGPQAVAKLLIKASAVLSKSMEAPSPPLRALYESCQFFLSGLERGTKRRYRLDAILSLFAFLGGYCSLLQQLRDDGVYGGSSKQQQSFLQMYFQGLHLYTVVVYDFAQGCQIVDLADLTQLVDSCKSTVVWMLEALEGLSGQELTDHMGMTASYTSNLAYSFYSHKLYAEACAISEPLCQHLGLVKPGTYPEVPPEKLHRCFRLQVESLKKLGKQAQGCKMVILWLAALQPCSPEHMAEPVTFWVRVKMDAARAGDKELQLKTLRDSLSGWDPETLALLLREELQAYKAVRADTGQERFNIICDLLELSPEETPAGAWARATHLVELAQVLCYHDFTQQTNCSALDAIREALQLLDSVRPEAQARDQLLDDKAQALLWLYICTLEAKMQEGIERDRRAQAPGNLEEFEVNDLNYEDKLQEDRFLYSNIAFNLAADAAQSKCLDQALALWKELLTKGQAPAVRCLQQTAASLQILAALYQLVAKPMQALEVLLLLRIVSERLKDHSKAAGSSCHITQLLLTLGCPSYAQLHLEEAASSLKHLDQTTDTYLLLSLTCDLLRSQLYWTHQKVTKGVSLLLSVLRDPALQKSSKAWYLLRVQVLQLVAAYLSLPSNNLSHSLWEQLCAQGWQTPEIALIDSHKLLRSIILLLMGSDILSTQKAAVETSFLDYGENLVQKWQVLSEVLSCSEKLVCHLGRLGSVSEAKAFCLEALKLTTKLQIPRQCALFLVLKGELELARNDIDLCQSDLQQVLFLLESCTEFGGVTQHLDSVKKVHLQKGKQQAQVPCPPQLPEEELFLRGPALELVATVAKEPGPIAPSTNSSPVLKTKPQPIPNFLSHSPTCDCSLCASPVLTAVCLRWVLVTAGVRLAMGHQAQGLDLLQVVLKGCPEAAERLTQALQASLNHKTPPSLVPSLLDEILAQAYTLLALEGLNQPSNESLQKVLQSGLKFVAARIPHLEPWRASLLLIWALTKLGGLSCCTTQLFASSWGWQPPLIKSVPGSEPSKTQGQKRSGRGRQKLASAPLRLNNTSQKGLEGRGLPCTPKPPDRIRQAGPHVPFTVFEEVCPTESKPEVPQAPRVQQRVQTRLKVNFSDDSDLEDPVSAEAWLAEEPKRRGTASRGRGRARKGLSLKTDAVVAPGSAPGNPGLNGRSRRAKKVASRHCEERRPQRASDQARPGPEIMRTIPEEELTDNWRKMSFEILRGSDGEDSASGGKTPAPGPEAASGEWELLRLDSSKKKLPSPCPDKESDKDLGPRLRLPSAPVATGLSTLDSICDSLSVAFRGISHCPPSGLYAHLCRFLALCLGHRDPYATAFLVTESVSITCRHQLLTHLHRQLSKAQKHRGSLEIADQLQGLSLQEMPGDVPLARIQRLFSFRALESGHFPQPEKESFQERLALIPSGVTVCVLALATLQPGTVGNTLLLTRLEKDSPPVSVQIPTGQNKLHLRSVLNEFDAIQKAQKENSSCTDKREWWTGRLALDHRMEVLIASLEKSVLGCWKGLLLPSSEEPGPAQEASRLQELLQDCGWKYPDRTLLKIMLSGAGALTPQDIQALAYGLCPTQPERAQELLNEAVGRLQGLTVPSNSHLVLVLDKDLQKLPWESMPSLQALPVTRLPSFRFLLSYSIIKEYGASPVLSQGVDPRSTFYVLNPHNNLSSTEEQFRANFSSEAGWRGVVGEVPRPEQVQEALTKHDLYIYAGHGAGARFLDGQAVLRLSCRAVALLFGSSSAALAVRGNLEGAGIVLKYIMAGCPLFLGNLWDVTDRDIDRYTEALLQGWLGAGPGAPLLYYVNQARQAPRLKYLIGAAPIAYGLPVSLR

B1: MBP-SCC1 (aa 350-550) with C-terminal tetracysteine motif, FlAsH-labelled (domain or fragment, human, UniProt O60216 350-550, looked up)
chain: TLDLAPPTKKLMMWKETGGVEKLFSLPAQPLWNNRLLKLFTRCLTPLVPEDLRKRRKGGEADNLDEFLKEFENPEVPREDQQQQHQQRDVIDEPIIEEPSRLQESVMEASRTNIDESAMPPPPPQGVKRKAGQIDPEPVMPPQQVEQMEIPPVELPPEEPPNICQLIPELELLPEKEKEKEKEKEDDEEEEDEDASGGDQD
modifications: FlAsH-EDT2 fluorescent dye on the C-terminal tetracysteine motif
notes: human SCC1/RAD21, aa 350-550 (holds cleavage site 2, R427); also called SCC1^350–550; SCC1 site 2 (aa 350-550); source: E. coli BL21 (DE3), purified (Hitrap MBP, Superdex 200); not shown: 6xHis-MBP, N-terminal, kept
Q: Does B1 bind?
A: binds
